T1: BFL-1 (UniProt Q16548 1-175, biotin)
T1 chain: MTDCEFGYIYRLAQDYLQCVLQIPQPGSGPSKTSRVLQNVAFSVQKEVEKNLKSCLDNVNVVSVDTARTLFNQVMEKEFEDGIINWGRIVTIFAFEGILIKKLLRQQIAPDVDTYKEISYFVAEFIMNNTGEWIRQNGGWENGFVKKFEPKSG

T2: MBP-BAK 16-186, biotinylated (Avi tag, 6-histidine tag) (human, UniProt Q16611 16-186, biotin on the Avi tag (enzymatic, BirA))
T2 chain: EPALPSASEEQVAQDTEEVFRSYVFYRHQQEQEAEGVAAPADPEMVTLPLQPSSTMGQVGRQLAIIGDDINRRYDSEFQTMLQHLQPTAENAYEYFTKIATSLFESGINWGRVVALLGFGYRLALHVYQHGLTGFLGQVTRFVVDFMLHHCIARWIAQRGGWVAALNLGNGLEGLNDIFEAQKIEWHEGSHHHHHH

B1: αBAX2 (designed binder)
chain: GADPKKVLDKARDQAENRVRELRQKLTELYKEARKLDLTQEERRKLIKRYKAAMNEAIKDIHEAIEQAKEEADKLKDAGLVNEQQLKELKQRLNEKALAAAFRASGDTWHARRKLQYG
B2: αBAX1 (designed binder)
chain: GADPKKVLDKARDQAENRVRELAQKLEELYKEARKLDLTQEERRKLEKRYKAAMEEAIKDIHEAIEQAKEEADKLKDAGLVNEQQLKELKQRLNELAIAAAFRASGDTIEFRRKLQYG

Key:
Assay in all cases: BLI
BFL-1 = target: T1, BFL-1
BCL-2 = BCL-2 (UniProt P10415 1-239, biotin)
BCL-2, sequence (P10415 1-207): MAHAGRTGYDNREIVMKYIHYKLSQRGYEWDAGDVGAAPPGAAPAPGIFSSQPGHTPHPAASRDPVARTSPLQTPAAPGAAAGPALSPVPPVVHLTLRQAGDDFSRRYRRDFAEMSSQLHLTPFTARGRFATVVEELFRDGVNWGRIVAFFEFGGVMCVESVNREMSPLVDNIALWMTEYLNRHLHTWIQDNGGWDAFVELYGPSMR

[1] = target: T2, MBP-BAK 16-186, biotinylated (Avi tag, …)
[2] = target: MBP-BAX 1-166 C62S C126S, biotinylated (Avi tag, 6-histidine tag) (human, UniProt Q07812 1-166, C62S | C126S, biotin on the Avi tag (enzymatic, BirA))
MBP-BAX 1-166 C62S C126S, biotinylated (Avi tag, 6-histidine tag), sequence (Q07812 1-166 C62S/C126S): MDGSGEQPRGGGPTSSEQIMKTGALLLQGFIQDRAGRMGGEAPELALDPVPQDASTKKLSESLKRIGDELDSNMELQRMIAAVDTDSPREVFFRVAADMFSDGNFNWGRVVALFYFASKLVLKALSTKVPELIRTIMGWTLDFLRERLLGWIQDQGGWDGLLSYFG

[3] = target: MBP-BAK 16-186, biotinylated (Avi tag, 6-histidine tag) (human, UniProt Q16611 16-186, biotin on the Avi tag (enzymatic, BirA)); remark: listed apart in the source

| Binder | Kd (BFL-1) [nM] | Kd (BCL-2) [nM] | Kd [1] [nM] | Kd [2] [nM] | Kd [3] [nM] |
| --- | --- | --- | --- | --- | --- |
| B1 | 300 | 2300 | > 9000 |  |  |
| B2 |  | 3500 |  | 1.43 | > 20000 |
